Measured values published in US20180230200A1 (CITY OF HOPE, published 2018).

T1: UL128 expressed from MVA in BHK-21 cells (human cytomegalovirus, UniProt P16837 28-171)
T1 construct: whole, on cells
T1 sequence: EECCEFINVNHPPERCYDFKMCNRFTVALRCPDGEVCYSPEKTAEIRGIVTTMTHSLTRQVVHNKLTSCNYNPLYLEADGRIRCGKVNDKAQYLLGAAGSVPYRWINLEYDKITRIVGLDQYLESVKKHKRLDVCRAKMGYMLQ


Experiments:
[1] = target: gH/gL/UL128/UL130/UL131A pentamer complex (PC) of HCMV strain TB40/E virus (human cytomegalovirus strain TB40/E); assay: cell-based or functional assay
[2] = target: gH/gL/UL128/UL130/UL131A pentamer complex (PC) of HCMV strain TR virus (human cytomegalovirus strain TR); assay: cell-based or functional assay
[3] = target: T1, UL128 expressed from MVA in BHK-21 cells; assay: intracellular FC, MVA-infected BHK-21
[4] = target: T2, UL130 expressed from MVA in BHK-21 cells (human cytomegalovirus, UniProt P16772 1-214); assay: intracellular FC, MVA-infected BHK-21
T2 construct: whole, on cells

[5] = target: T3, UL131A expressed from MVA in BHK-21 cells (human cytomegalovirus, UniProt F5HET4 19-129); assay: intracellular FC, MVA-infected BHK-21
T3 construct: whole, on cells

[6] = target: T4, UL128/UL130 co-expressed from MVA in BHK-21 cells (human cytomegalovirus, UniProt P16837 28-171; P16772 1-214); assay: intracellular FC, MVA-infected BHK-21
T4 construct: whole, on cells

[7] = target: T5, UL128/UL131A co-expressed from MVA in BHK-21 cells (human cytomegalovirus, UniProt P16837 28-171; F5HET4 19-129); assay: intracellular FC, MVA-infected BHK-21
T5 construct: whole, on cells

[8] = target: T6, gH expressed from MVA in BHK-21 cells (human cytomegalovirus, UniProt P12824 24-743); assay: intracellular FC, MVA-infected BHK-21
T6 construct: whole, on cells

[9] = target: T7, gH/gL co-expressed from MVA in BHK-21 cells (human cytomegalovirus, UniProt P12824 24-743; P16832 31-278); assay: intracellular FC, MVA-infected BHK-21
T7 construct: whole, on cells

[10] = target: T8, gH/gL/UL128 co-expressed from MVA in BHK-21 cells (human cytomegalovirus, UniProt P12824 24-743; P16832 31-278; P16837 28-171); assay: intracellular FC, MVA-infected BHK-21
T8 construct: whole, on cells

[11] = target: T9, gH/gL/UL130 co-expressed from MVA in BHK-21 cells (human cytomegalovirus, UniProt P12824 24-743; P16832 31-278; P16772 1-214); assay: intracellular FC, MVA-infected BHK-21
T9 construct: whole, on cells

[12] = target: T10, gH/gL/UL131A co-expressed from MVA in BHK-21 cells (human cytomegalovirus, UniProt P12824 24-743; P16832 31-278; F5HET4 19-129); assay: intracellular FC, MVA-infected BHK-21
T10 construct: whole, on cells

[13] = target: T11, gH/gL/UL128/UL130 co-expressed from MVA in BHK-21 cells (human cytomegalovirus, UniProt P12824 24-743; P16832 31-278; P16837 28-171; P16772 1-214); assay: intracellular FC, MVA-infected BHK-21
T11 construct: whole, on cells

[14] = target: T12, gH/gL/UL128/UL131A co-expressed from MVA in BHK-21 cells (human cytomegalovirus, UniProt P12824 24-743; P16832 31-278; P16837 28-171; F5HET4 19-129); assay: intracellular FC, MVA-infected BHK-21
T12 construct: whole, on cells

[15] = target: T13, gH/gL/UL128/UL130/UL131A pentamer complex expressed from MVA-PC in BHK-21 cells (human cytomegalovirus, UniProt P12824 24-743; P16832 31-278; P16837 28-171; P16772 1-214; F5HET4 19-129); assay: FC, biotinylated NAb titrated on MVA-PC-infected BHK-21 (cell surface PC)
T13 construct: whole, on cells

[16] = target: T13, gH/gL/UL128/UL130/UL131A pentamer …; assay: FC competition, MVA-PC BHK-21; unlabelled row Ab; competitor: biotinylated 1B2
[17] = target: T13, gH/gL/UL128/UL130/UL131A pentamer …; assay: FC competition, MVA-PC BHK-21; unlabelled row Ab; competitor: biotinylated 12E2
[18] = target: T13, gH/gL/UL128/UL130/UL131A pentamer …; assay: FC competition, MVA-PC BHK-21; unlabelled row Ab; competitor: biotinylated 13B5
[19] = target: T13, gH/gL/UL128/UL130/UL131A pentamer …; assay: FC competition, MVA-PC BHK-21; unlabelled row Ab; competitor: biotinylated 21F6
[20] = target: T13, gH/gL/UL128/UL130/UL131A pentamer …; assay: FC competition, MVA-PC BHK-21; unlabelled row Ab; competitor: biotinylated 18F10
[21] = target: T13, gH/gL/UL128/UL130/UL131A pentamer …; assay: FC competition, MVA-PC BHK-21; unlabelled row Ab; competitor: biotinylated 54E11

| Binder | IC50, inhibition of TB40/E cell-to-cell spread in ARPE-19 [1] | IC50, neutralization of TB40/E infection of ARPE-19 [1] | IC50, neutralization of TB40/E infection of CTB [1] | IC50, neutralization of TB40/E infection of HUVEC [1] | IC50, neutralization of TB40/E infection of MRC-5 [1] | IC50, inhibition of TR cell-to-cell spread in ARPE-19 [2] | IC50, neutralization of TR infection of ARPE-19 [2] | IC50, neutralization of TR infection of HUVEC [2] | IC50, neutralization of TR infection of MRC-5 [2] | binding result [3] | binding result [4] | binding result [5] | binding result [6] | binding result [7] | binding result [8] | binding result [9] | binding result [10] | binding result [11] | binding result [12] | binding result [13] | further results |
| --- | --- | --- | --- | --- | --- | --- | --- | --- | --- | --- | --- | --- | --- | --- | --- | --- | --- | --- | --- | --- | --- |
| 54E11 (antibody, V domains shown, also called NAb 54E11) VH: QIQLVQSGPELKKPGETVKISCKASGYTFTSYGMNWVKQAPGKGLKWMGWINTYTGEPTYADDFKGRFAFSLETSASTAYLQINNLKNEDTATYFCAREHYYGINPLLGCWGQGTTLTVSS VL: DIQMTQTTSSLSASLGDRVTISCSASQGISNYLNWYQQKPDGTVKLLIYDTSSLHSGVPSRFSGSGSGTDYSLTISNLEPEDIATYYCQQYSKLPYTFGGGTKLEIK | 17 µg/mL | 0.0034 µg/mL | 0.0249 µg/mL | 0.0046 µg/mL | > 25 µg/mL | 18 µg/mL | 0.0034 µg/mL | 0.0059 µg/mL | > 25 µg/mL | no binding | no binding | no binding | no binding | no binding | no binding | no binding | no binding | no binding | no binding | no binding | binding result [14]: no binding; EC50 [15]: 510 pM; Binding Inhibition (%) [16]: 0%; Binding Inhibition (%) [17]: 0%; Binding Inhibition (%) [18]: 0%; Binding Inhibition (%) [19]: 100%; Binding Inhibition (%) [20]: 0%; Binding Inhibition (%) [21]: 100% |
| 21F6 (antibody, V domains shown, also called NAb 21F6) VH: QIQLVQSGPELKKPGETVKISCKASGYTFTSYGMNWVKQAPGKGLKWMGWINTYTGEPTYADDFKGRFAFSLETSASTAYLQINNLKNEDTATYFCAREHYYGINPLLGCWGQGTTLTVSS VL: DIQMTQTTSSLSASLGDRVTISCSASQGISNYLNWYQQKPDGTVKLLIYDTSSLHSGVPSRFSGSGSGTDYSLTISNLEPEDIATYYCQQYSKLPYTFGGGTKLEIK | 18 µg/mL | 0.0026 µg/mL | 0.0307 µg/mL | 0.004 µg/mL | > 25 µg/mL | 19 µg/mL | 0.0035 µg/mL | 0.0059 µg/mL | > 25 µg/mL | no binding | no binding | no binding | no binding | no binding | no binding | no binding | no binding | no binding | no binding | no binding | binding result [14]: no binding; EC50 [15]: 620 pM; Binding Inhibition (%) [16]: 0%; Binding Inhibition (%) [17]: 0%; Binding Inhibition (%) [18]: 0%; Binding Inhibition (%) [19]: 100%; Binding Inhibition (%) [20]: 0%; Binding Inhibition (%) [21]: 100% |
